The text below walks through data of US20220251194A1 (Merck Sharp & Dohme, published 2022).

Bounds are passed on as bounds.

The target in experiment [1] is T1, polyhistidine-tagged human PD-1 (hPD1-His, 98AFK) (human, UniProt Q15116 25-167, limits assumed).
T1 construct: also called human PD1-His; Human PD-1-His
Nature of the experiment: SPR (Biacore T200), mAb captured on anti-Fc chip; reference Mouse 08A. Here is the method: (§1) A surface plasmon resonance (SPR)-based assay utilizing capture mode was used to determine the binding kinetics and affinities of anti-PD-1 antibodies against polyhistidine-tagged human PD-1 (hPD1-His, 98AFK). Following manufacture instructions, a series S sensor chip CM5 (GE Healthcare, BR100530) was activated using an amine-coupling kit (GE Healthcare, BR100050). Either human capture kit (anti-human Fc, 25 μg/mL, GE Healthcare, BR100839) or mouse capture kit (anti-mouse Fc, 30 μg/mL, GE Healthcare, BR100838) antibody diluted in the supplied pH 5.0, 10 mM sodium acetate buffer was immobilized onto the activated surface for 7 minutes. After immobilization, surfaces were deactivated with 1M ethanolamine/HCl (pH 8.5) for 7 minutes.
(§2) Binding kinetics were measured on a biacore T200 in HBS-EP+ (0.01 M HEPES pH 7.4, 0.15 M NaCl, 3 mM EDTA, 0.05% v/v Surfactant P20) running buffer at 25° C. Antibodies were captured either on mouse or human Fc capture surfaces at 10 μL/min flow rate. Antibodies were captured on flow cells 2, 3 and 4. Flow cell 1 was used as a reference with no antibody captured. A 6-point, 2-fold serial dilutions of the analyte 98AFK (hPD1-His), starting at 20 nM, were prepared in the running buffer (HBS-EP+). Two buffer blanks were included for double referencing. Titration series were injected for 3 minutes at 50 μl/min followed by 600 seconds of dissociation. After each cycle, surfaces were regenerated with a 30 second injection of 3M MgCl₂ at […] on the anti-human Fc chip or 180 seconds of 10 mM Glycine pH 1.7 at 10 μl/min on the anti-mouse Fc chip.
(§3) Sensorgram processing and data analysis were performed with Biacore T200 Evaluation Software Version 2.0.4 (GE Healthcare). […] Processed curves were globally fitted to a 1:1 binding model to determine the association rate constant, kₒₙ (M⁻¹s⁻¹, where “M” equals molar and “s” equals seconds) and the dissociation rate constant, koff (s⁻¹). These rate constants were used to calculate the equilibrium dissociation constant, KD (M)=koff/kₒₙ.
On the technique in general: Surface plasmon resonance follows binding to a sensor surface in real time, without labels.

In experiment [2] the target is T1, polyhistidine-tagged human PD-1 …. Nature of the experiment: SPR (Biacore T200), mAb captured on anti-Fc chip, hPD1-His as analyte. Here is the method:
as §1, §2, §3

Experiment [3] has the same target. Nature of the experiment: SPR solution affinity; reference Humanized 08A IgG4 S61N (98AIO). Here is the method: (§4) The titration series were incubated for 16-24 hours to reach equilibrium at room temperature. The unbound sites were measured using a BIAcore chip immobilized with antigen in a competition mode where SPR signal detected corresponded to unbound antibody.
(§5) The titration series following >16 hr. incubation were injected over the sensor chip immobilized with hPD1-His (above). Free, unbound antibodies concentrations were measured as proportional to RU after 120 seconds (for 500 pM mAb series) or 400 seconds (for 100 pM mAb series) of injection at 10 μL/min. After each cycle, surfaces were regenerated with a 30 second injection of 1:1 mixture of 3M MgCl₂ and pH 2.0 10 mM glycine at 30 μL/min.

For experiment [4] the target is unchanged. The experiment in a line: SPR solution affinity (Biacore T200, competition mode, equilibrium titration). Here is the method:
as §4, §5

Experiment [5] deals with T2, recombinant human or cyno PD-1 (immobilized onto CM5 chip, Example 1) (human or cyno ( which was …, UniProt Q15116 25-167, limits assumed)).
T2 construct: also called antigen
T2 sequence (Q15116 25-167 limits assumed): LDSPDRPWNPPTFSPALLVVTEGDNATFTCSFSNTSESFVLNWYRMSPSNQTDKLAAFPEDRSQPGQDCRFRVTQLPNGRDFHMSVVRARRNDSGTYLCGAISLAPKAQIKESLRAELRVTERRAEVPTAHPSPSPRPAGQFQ
The experiment in a line: SPR (Biacore T200), PD-1 immobilized on CM5 chip, Fab as analyte. Here is the method: Immobilization of recombinant human or cyno PD-1 onto CM5 chip: A CM5 sensor chip was activated in FC2 by 7-min. injection (10 μl/min.) of freshly prepared 1:1 50 mM NHS: 200 mM EDC. PD-1 at a concentration of 0.2 μg/ml in 10 mM sodium acetate buffer pH 5.0 was injected onto the activated chip at 5 μl/min. (HBS-EP running buffer: 10 mM HEPES, 150 mM NaCl, 3.4 mM EDTA, 0.005% surfactant P20, pH 7.4) for 120 seconds. The remaining active coupling sites were blocked with 7 min. injection of 1M ethanolamine at 10 μl/min.
Binding kinetics measurement: Various concentrations of the Fabs were injected with a flow rate of 30 μl/min for 180 seconds(s) during the association phase. The dissociation of bound antibody was monitored by flowing HBS-EP buffer over the chip surface for 600 seconds. At the end of each cycle, the sensor surfaces were regenerated by injecting regeneration buffer (10 mM glycine buffer with pH 1.7) for 180 seconds. After sensograms were corrected for signals from a reference flow, kinetics were calculated with BIACORE T 200 evaluation software ver.1.0 (Biacore, GE, USA).

T1 sequence (Q15116 25-167 limits assumed): as above

B1: Humanized 08A IgG4 S61N (lot 98AIO) (antibody)
heavy: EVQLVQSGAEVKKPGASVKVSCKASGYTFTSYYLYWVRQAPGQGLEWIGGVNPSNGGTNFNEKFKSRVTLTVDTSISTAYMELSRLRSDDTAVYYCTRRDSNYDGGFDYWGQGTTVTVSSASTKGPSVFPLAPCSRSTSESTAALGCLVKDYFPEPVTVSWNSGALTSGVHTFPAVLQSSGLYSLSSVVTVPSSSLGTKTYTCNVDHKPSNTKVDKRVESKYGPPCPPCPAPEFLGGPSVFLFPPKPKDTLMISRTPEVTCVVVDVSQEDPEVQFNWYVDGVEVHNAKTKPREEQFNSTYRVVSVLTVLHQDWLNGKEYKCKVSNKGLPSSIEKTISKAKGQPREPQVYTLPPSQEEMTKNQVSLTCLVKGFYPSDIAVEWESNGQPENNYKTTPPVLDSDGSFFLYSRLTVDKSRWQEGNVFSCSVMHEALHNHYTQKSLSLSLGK
light: DIVMTQTPLSLSVTPGQPASISCRASKSVSTSGFSYLHWYLQKPGQPPQLLIFLASNLESGVPDRFSGSGSGTDFTLKISRVEAEDVGVYYCQHSWELPLTFGQGTKLEIKRTVAAPSVFIFPPSDEQLKSGTASVVCLLNNFYPREAKVQWKVDNALQSGNSQESVTEQDSKDSTYSLSSTLTLSKADYEKHKVYACEVTHQGLSSPVTKSFNRGEC
notes: IgG4 S228P / kappa; also called Humanized x [PD-1_H] mAb (08A/HuPD1A-11 S61N S228P corrected) IgG4 / Kappa
As to B1, the “KD (REF)/KD” value in experiment [1] was found to be 4.4; in experiment [3] it was 1. The results for the Kd in experiment [2] and in experiment [4] were 0.054 nM and 0.033 nM, respectively.

B2: Humanized 08A IgG4 Fab 098 G56A (antibody, V domains shown)
VH: EVQLVQSGAEVKKPGASVKVSCKASGYTFTSYYLYWVRQAPGQGLEWIGGVNPSNAGTNFSEKFKSRVTLTVDTSISTAYMELSRLRSDDTAVYYCTRRLSHYDGGFDYWGQGTTVTVSS
VL: DIVMTQTPLSLSVTPGQPASISCRASKSVSTSGFSYLHWYLQKPGQPPQLLIFLASNLESGVPDRFSGSGSGTDFTLKISRVEAEDVGVYYCQHSWELPLTFGQGTKLEIKR
notes: IgG4 S228P / kappa; also called 90AVZ
Consider B2, for which the “KD (REF)/KD” value was determined as 3 in experiment [1] and 1.7 in experiment [3]. Besides, the Kd (commonly the constant that tells how readily two partners part at equilibrium) in experiment [2] was found to be 0.079 nM; in experiment [4], 0.019 nM.

B3: Humanized 08A IgG4 S61N G56A (antibody, V domains shown)
VH: EVQLVQSGAEVKKPGASVKVSCKASGYTFTSYYLYWVRQAPGQGLEWIGGVNPSNAGTNFNEKFKSRVTLTVDTSISTAYMELSRLRSDDTAVYYCTRRDSNYDGGFDYWGQGTTVTVSS
VL: DIVMTQTPLSLSVTPGQPASISCRASKSVSTSGFSYLHWYLQKPGQPPQLLIFLASNLESGVPDRFSGSGSGTDFTLKISRVEAEDVGVYYCQHSWELPLTFGQGTKLEIKR
notes: IgG4 S228P / kappa; also called 51AQK; Humanized x [PD-1_H] mAb (08A/HuPD1A-11 S61N VH G56A / VL) IgG4 S228P / Kappa
As to B3, the entries for the “KD (REF)/KD” value in experiment [1] and in experiment [3] were 4.2 and 1, respectively. For the same molecule, the results for the Kd in experiment [2] and in experiment [4] were 0.057 nM and 0.033 nM, respectively.

B4: Humanized 08A IgG4 G56A (antibody, V domains shown)
VH: EVQLVQSGAEVKKPGASVKVSCKASGYTFTSYYLYWVRQAPGQGLEWIGGVNPSNAGTNFSEKFKSRVTLTVDTSISTAYMELSRLRSDDTAVYYCTRRDSNYDGGFDYWGQGTTVTVSS
VL: DIVMTQTPLSLSVTPGQPASISCRASKSVSTSGFSYLHWYLQKPGQPPQLLIFLASNLESGVPDRFSGSGSGTDFTLKISRVEAEDVGVYYCQHSWELPLTFGQGTKLEIKR
notes: IgG4 S228P / kappa; also called 89AVZ; Humanized x [PD-1_H] mAb (08A/HuPD1A-11 G56A) IgG4 S228P / Kappa
Regarding B4, the “KD (REF)/KD” value amounted to 2.4 in experiment [1] and 0.6 in experiment [3]. The dissociation constant Kd worked out at 0.1 nM in experiment [2] and 0.056 nM in experiment [4].

B5: Fab 128 (Fab, V domains shown)
VH: EVQLVQSGAEVKKPGASVKVSCKASGYTFTQYYYYWVRQAPGQGLEWIGGVNPSNGGTNFNEKFKSRVTLTVDTSISTAYMELSRLRSDDTSVYYCTRRDSNYDGGFDYWGQGTTVTVSS
VL: DIVMTQTPLSLSVTPGQPASISCRASKSVSTSGFSYLHWYLQKPGQPPQLLIFLGRHRASGVPDRFSGSGSGTDFTLKISRVEAEDVGVYYCQHSWELPLTFGQGTKLEIKR
For the molecule B5, in experiment [5], the Kd stood at 0.015 nM.

B6: Humanized 08A IgG4 Fab 100 S61N G56A (antibody, V domains shown)
VH: EVQLVQSGAEVKKPGASVKVSCKASGYTFTSYYLYWVRQAPGQGLEWIGGVNPSNAGTNFNEKFKSRVTLTVDTSISTAYMELSRLRSDDTAVYYCTRRLSHYDGGFDYWGQGTTVTVSS
VL: DIVMTQTPLSLSVTPGQPASISCRASKSVSTSGFSYLHWYLQKPGQPPQLLIFLSKYRSSGVPDRFSGSGSGTDFTLKISRVEAEDVGVYYCSQAYHLPLTFGQGTKLEIKR
notes: also called 25AVE
Turning to B6, the “KD (REF)/KD” value in experiment [1] was 5.7; in experiment [3], > 13. Moreover, the values for the Kd in experiment [2] and in experiment [4] were 0.042 nM and < 0.0025 nM, respectively.

B7: Fab 133 (Fab, V domains shown)
VH: EVQLVQSGAEVKKPGASVKVSCKASGYTFTQYYYYWVRQAPGQGLEWIGGVNPSNGGTNFNEKFKSRVTLTVDTSISTAYMELSRLRSDDTSVYYCTRRDSNYDGGFDYWGQGTTVTVSS
VL: DIVMTQTPLSLSVTPGQPASISCRASKSVSTSGFSYLHWYLQKPGQPPQLLIFLGFYRTSGVPDRFSGSGSGTDFTLKISRVEAEDVGVYYCSQMADLPLTFGQGTKLEIKR
Turning to B7, in experiment [5], the Kd was determined as 0.031 nM.

B8: Fab 139 (Fab, V domains shown)
VH: EVQLVQSGAEVKKPGASVKVSCKASGYTFTQYYYYWVRQAPGQGLEWIGGVNPSNGGTNFNEKFKSRVTLTVDTSISTAYMELSRLRSDDTSVYYCTRRDSNYDGGFDYWGQGTTVTVSS
VL: DIVMTQTPLSLSVTPGQPASISCRASKSVSTSGFSYLHWYLQKPGQPPQLLIFLSKFRRSGVPDRFSGSGSGTDFTLKISRVEAEDVGVYYCQHSWELPLTFGQGTKLEIKR
For the molecule B8, the Kd in experiment [5] was 0.014 nM.

B9: Fab 138 (Fab, V domains shown)
VH: EVQLVQSGAEVKKPGASVKVSCKASGYTFTQYYTYWVRQAPGQGLEWIGGIEPNRGGTNFNEKFKSRVTLTVDTSISTAYMELSRLRSDDTAVYYCTRRDSNYDGGFDYWGQGTTVTVSS
VL: DIVMTQTPLSLSVTPGQPASISCRASKSVSTSGFSYLHWYLQKPGQPPQLLIFLASNLESGVPDRFSGSGSGTDFTLKISRVEAEDVGVYYCAQTFELPLTFGQGTKLEIKR
B9: in experiment [5], the Kd is 0.066 nM.
